Results: PMC12552129, “Methylthio-alkane reductases use nitrogenase metalloclusters for carbon–sulfur bond cleavage” (Nature Catalysis, 2025)
Values joined by “and” are separate entries in the source; they are usually repeats but may differ in a detail not shown here. Equal values may be shown once.

T1: MarD subunit of the methylthio-alkane reductase catalytic component from Rhodospirillum rubrum (Strep-tagged) (Rhodospirillum rubrum, UniProt Q2RW97 1-511)
T1 construct: MarD, subunit of the catalytic component of the methylthio-alkane reductase (marHDK) of Rhodospirillum rubrum; 57.5 kDa with the Strep tag; Holds the [Fe8S9C]-cluster; also called D1; source: Rhodobacter capsulatus MM0422 (plasmid-based, anfH promoter), soluble fraction of the lysate; purified anaerobically with MarK (Strep-Tactin XT 4Flow, PD-10 desalting); not shown: Strep-tag II, C-terminal, …
T1 sequence: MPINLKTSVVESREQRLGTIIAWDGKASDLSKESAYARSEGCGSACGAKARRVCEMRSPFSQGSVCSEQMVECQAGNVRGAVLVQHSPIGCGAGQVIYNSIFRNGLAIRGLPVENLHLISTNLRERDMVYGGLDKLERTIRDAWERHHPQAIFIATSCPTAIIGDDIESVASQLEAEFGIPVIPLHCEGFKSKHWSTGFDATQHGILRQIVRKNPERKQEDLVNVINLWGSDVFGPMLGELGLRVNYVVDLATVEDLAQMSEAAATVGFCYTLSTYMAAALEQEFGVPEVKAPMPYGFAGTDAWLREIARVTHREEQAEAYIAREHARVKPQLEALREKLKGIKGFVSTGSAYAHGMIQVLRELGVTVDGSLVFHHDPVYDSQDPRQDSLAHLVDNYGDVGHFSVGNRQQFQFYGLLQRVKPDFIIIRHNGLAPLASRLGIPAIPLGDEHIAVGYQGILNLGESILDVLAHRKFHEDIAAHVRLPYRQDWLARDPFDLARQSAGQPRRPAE

T2: Mar(DK)2, catalytic component of the methylthio-alkane reductase from Rhodospirillum rubrum (Rhodospirillum rubrum, UniProt Q2RW97 1-511; Q2RW98 1-466)
T2 construct: MarD of Rhodospirillum rubrum, as the chain of m2; MarK of Rhodospirillum rubrum, as the chain of m3; Heterotetramer by mass photometry (227 kDa measured, 217 kDa theoretical); holds two P-clusters and two [Fe8S9C]-clusters; No tag cleavage is described; The deposited model (MarDK2H2) holds only one of the two MarD copies; copies: 2 + 2
T2 sequence 1: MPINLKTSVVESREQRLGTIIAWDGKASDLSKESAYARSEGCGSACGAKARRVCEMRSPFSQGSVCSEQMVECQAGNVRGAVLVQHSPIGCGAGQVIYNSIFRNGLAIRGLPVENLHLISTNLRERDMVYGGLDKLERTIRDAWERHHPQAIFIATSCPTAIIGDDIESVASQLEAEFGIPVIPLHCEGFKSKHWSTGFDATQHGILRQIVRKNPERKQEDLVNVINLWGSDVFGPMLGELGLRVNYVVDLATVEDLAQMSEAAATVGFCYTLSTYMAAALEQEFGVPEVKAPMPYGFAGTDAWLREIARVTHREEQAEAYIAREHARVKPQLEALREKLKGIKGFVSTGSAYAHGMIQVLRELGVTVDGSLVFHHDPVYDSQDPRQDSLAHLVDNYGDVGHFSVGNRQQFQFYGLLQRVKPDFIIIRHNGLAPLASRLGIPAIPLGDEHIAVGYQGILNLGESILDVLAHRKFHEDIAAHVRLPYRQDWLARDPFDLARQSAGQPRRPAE
T2 sequence 2: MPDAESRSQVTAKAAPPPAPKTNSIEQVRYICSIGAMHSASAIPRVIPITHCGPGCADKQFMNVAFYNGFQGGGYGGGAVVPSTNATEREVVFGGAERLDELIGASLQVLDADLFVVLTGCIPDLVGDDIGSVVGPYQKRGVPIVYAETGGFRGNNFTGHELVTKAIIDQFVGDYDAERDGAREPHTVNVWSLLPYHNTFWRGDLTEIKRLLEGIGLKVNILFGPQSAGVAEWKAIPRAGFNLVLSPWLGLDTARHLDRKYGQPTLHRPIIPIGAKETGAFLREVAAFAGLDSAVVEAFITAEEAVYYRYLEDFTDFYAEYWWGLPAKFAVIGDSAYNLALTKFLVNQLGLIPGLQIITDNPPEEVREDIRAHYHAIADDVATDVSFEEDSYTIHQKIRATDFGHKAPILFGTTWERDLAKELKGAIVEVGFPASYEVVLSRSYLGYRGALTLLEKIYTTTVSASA


Tests used:
[1] = biological target: T1, MarD subunit of the methylthio-alkane …; experiment: mass photometry; TwoMP mass photometer; 0.5 µl of sample (500 nM stock, 4 mM sodium DT) added to 19.5 µl anaerobic measurement buffer (150 mM NaCl, 50 mM Tris pH 7.8, 10% glycerol, 10 mM sodium DT); each component measured alone; conditions: both partners purified
[2] = biological target: the molecule itself; experiment: as above
[3] = biological target: T2, Mar(DK)2, catalytic component of the …; experiment: cryo-EM structure; MgADP-AlF3-trapped complex: 22 nmol MarH2 and 3 nmol Mar(DK)2 in 100 mM MOPS pH 7.3, 50 mM Tris pH 7.8, 100 mM NaCl, 5 mM DT, 4 mM NaF, 0.2 mM AlCl3, 8 mM MgCl2, 1 mM ATP, 3 h at 30 °C; isolated by size-exclusion chromatography (HiLoad 26/600 Superdex 200 pg); anaerobic single-particle cryo-EM; conditions: both partners purified

Binder	binding result [1]	stoichiometry N [2]	stoichiometry N [3]
MarK subunit of the methylthio-alkane reductase catalytic component from Rhodospirillum rubrum (enzyme, MarK, subunit of the catalytic component of the methylthio-alkane reductase (marHDK) of Rhodospirillum rubrum; 50.8 kDa; No tag is described for MarK; also called K1 and K2; source: Rhodobacter capsulatus MM0422 (plasmid-based, anfH promoter), soluble fraction of the lysate; purified anaerobically with Strep-tagged MarD (Strep-Tactin XT 4Flow, PD-10 desalting)) MPDAESRSQVTAKAAPPPAPKTNSIEQVRYICSIGAMHSASAIPRVIPITHCGPGCADKQFMNVAFYNGFQGGGYGGGAVVPSTNATEREVVFGGAERLDELIGASLQVLDADLFVVLTGCIPDLVGDDIGSVVGPYQKRGVPIVYAETGGFRGNNFTGHELVTKAIIDQFVGDYDAERDGAREPHTVNVWSLLPYHNTFWRGDLTEIKRLLEGIGLKVNILFGPQSAGVAEWKAIPRAGFNLVLSPWLGLDTARHLDRKYGQPTLHRPIIPIGAKETGAFLREVAAFAGLDSAVVEAFITAEEAVYYRYLEDFTDFYAEYWWGLPAKFAVIGDSAYNLALTKFLVNQLGLIPGLQIITDNPPEEVREDIRAHYHAIADDVATDVSFEEDSYTIHQKIRATDFGHKAPILFGTTWERDLAKELKGAIVEVGFPASYEVVLSRSYLGYRGALTLLEKIYTTTVSASA	binds		
MarH2, reductase component of the methylthio-alkane reductase from Rhodospirillum rubrum (His-tagged MarH) (enzyme, MarH, reductase subunit of the methylthio-alkane reductase (marHDK) of Rhodospirillum rubrum; 31.9 kDa with the His tag; Homodimer by mass photometry; holds one [Fe4S4]-cluster in the dimer interface; No tag cleavage is described, and the theoretical mass of 64 kDa equals twice the 31.9 kDa of His-tagged MarH; also called H1 and H2; source: Rhodobacter capsulatus MM0422 (plasmid-based, anfH …)) AKSPKQIAIYGKGGIGKSTTTSNISAALAEAGYKVMQFGCDPKSDSTNTLRGGDYIPSVLDLLRENARVDAHEAIFQGFGGIYCVEAGGPAPGVGCAGRGIITAVELLKQQNVFEELDLDYVIFDVLGDVVCGGFAVPIREGIAEHVFTVSSSDFMAIYAANNLFKGIQKYSNAGGALLGGVIANSINTDFHRDIIDDFVARTQTQVVQYVPRSLTVTQAELQGRTTIEAAPESAQAEIYRTLARSIADHTDSKVPTPLNAQELRDWSASWANQLIEIERASQPIPALAS		2	1 and 2
